Source: patent publication US20260242731A1

Experiments:
CD19.1-His (Human) [1] = biological target: CD19.1-His (Human) (UniProt P15391); assay: on-bead fluorescence binding capacity assay; beads CD19.1-His (0.5 x moles)
[2] = biological target: custom-produced WT etCD19-Fc (Human; human) (UniProt P15391); assay: on-bead fluorescence binding capacity assay; wtCD19 Fc coated beads
[3] = biological target: WT etCD19-His (Acrobiosystems) (Human) (UniProt P15391); assay: on-bead ELISA, HRP-conjugated FMC63 titrated on wtCD19 His coated beads, absorbance at 450 nm, four-parameter logistic fit
CD19.1-Fc (Human) [4] = assay: on-bead fluorescence binding capacity assay; beads CD19.1-Fc (2.0 x moles)
CD19.1-His (Human) [5] = biological target: CD19.1-His (Human) (UniProt P15391); assay: on-bead fluorescence binding capacity assay; beads CD19.1-His (1.0 x moles)
CD19.1-Fc (Human) [6] = assay: on-bead fluorescence binding capacity assay; beads CD19.1-Fc (0.5 x moles)
CD19.1-His (Human) [7] = biological target: CD19.1-His (Human) (UniProt P15391); assay: on-bead ELISA, HRP-conjugated FMC63 titrated on CD19.1 His coated beads, absorbance at 450 nm, four-parameter logistic fit
CD19.1-His (Human) [8] = biological target: CD19.1-His (Human) (UniProt P15391); assay: on-bead fluorescence binding capacity assay; beads CD19.1-His (5.0 x moles)
CD19.1-His (Human) [9] = biological target: CD19.1-His (Human) (UniProt P15391); assay: on-bead fluorescence binding capacity assay; beads CD19.1-His (2.0 x moles)
CD19.1-Fc (Human) [10] = assay: on-bead ELISA, HRP-conjugated FMC63 titrated on CD19.1 Fc coated beads, absorbance at 450 nm, four-parameter logistic fit
CD19.1-Fc (Human) [11] = assay: on-bead anti-CD19-FITC (FMC63) binding assay
CD19.1-Fc (Human) [12] = assay: on-bead fluorescence binding capacity assay; beads CD19.1-Fc (5.0 x moles)
CD19.1-Fc (Human) [13] = assay: direct ELISA, CD19 variant coated on plate (2D), FMC63-HRP titrated, OD450nm
CD19.1-Fc (Human) [14] = assay: on-bead fluorescence binding capacity assay; beads CD19.1-Fc (1.0 x moles)
CD19.1-Fc (Human) [15] = assay: on-bead fluorescence binding capacity assay; CD19.1-Fc coated beads
[16] = biological target: FMC63-scFv-41BBz CAR on Jurkat-Lucia NFAT cells; assay: cell-based or functional assay
CD19 antibody FMC63 [17] = assay: biolayer interferometry, FMC63 immobilized
[18] = biological target: FMC63-derived anti-CD19 28z CAR on primary T cells; assay: flow cytometry, FITC-labeled protein titrated on anti-CD19 28z CAR primary T cells, four-parameter fit
CD19 antibody FMC63 [19] = assay: biolayer interferometry, FMC63 immobilized; stronger non-specific binding noted

How did the % of CD19.1 molecules bound by anti-CD19-FITC (CD19.1-His (Human) [1]) turn out when CD19 antibody FMC63 was run?
Its % of CD19.1 molecules bound by anti-CD19-FITC is 0.8%.

And the Moles of antibody per mg of beads (mol per mg of beads) (CD19.1-His (Human) [1])?
The Moles of antibody per mg of beads (mol per mg of beads) was 4.9e-13.

What about the Moles of antibody per mg of beads (mol per mg of beads) [2] of the same substance?
Its Moles of antibody per mg of beads (mol per mg of beads) is 1.3e-13.

What about the Percentage of CD19.1 or wt CD19 Fc molecules bound by anti-CD19-FITC (FMC63) [2] of the same substance?
Its Percentage of CD19.1 or wt CD19 Fc molecules bound by anti-CD19-FITC (FMC63) is 0.37%.

What about the EC50 [3] of the same substance?
The EC50 was 0.68 nM.

And the % of CD19.1 molecules bound by anti-CD19-FITC (CD19.1-Fc (Human) [4])?
The % of CD19.1 molecules bound by anti-CD19-FITC was 1.21%.

What about the Moles of antibody per mg of beads (mol per mg of beads) (CD19.1-Fc (Human) [4]) of the same substance?
Its Moles of antibody per mg of beads (mol per mg of beads) is 6e-13.

What about the % of CD19.1 molecules bound by anti-CD19-FITC (CD19.1-His (Human) [5]) of the same substance?
Its % of CD19.1 molecules bound by anti-CD19-FITC is 0.76%.

What about the Moles of antibody per mg of beads (mol per mg of beads) (CD19.1-His (Human) [5]) of the same substance?
The Moles of antibody per mg of beads (mol per mg of beads) was 5.1e-13.

What about the % of CD19.1 molecules bound by anti-CD19-FITC (CD19.1-Fc (Human) [6]) of the same substance?
Its % of CD19.1 molecules bound by anti-CD19-FITC is 0.7%.

And the Moles of antibody per mg of beads (mol per mg of beads) (CD19.1-Fc (Human) [6])?
The Moles of antibody per mg of beads (mol per mg of beads) was 2.8e-13.

What about the EC50 (CD19.1-His (Human) [7]) of the same substance?
Its EC50 is 0.36 nM.

What about the % of CD19.1 molecules bound by anti-CD19-FITC (CD19.1-His (Human) [8]) of the same substance?
Its % of CD19.1 molecules bound by anti-CD19-FITC is 2.17%.

And the Moles of antibody per mg of beads (mol per mg of beads) (CD19.1-His (Human) [8])?
The Moles of antibody per mg of beads (mol per mg of beads) was 2e-12.

And the % of CD19.1 molecules bound by anti-CD19-FITC (CD19.1-His (Human) [9])?
Its % of CD19.1 molecules bound by anti-CD19-FITC is 1.66%.

What about the Moles of antibody per mg of beads (mol per mg of beads) (CD19.1-His (Human) [9]) of the same substance?
The Moles of antibody per mg of beads (mol per mg of beads) was 1.14e-12.

What about the EC50 (CD19.1-Fc (Human) [10]) of the same substance?
Its EC50 is 0.59 nM.

And the fold binding capacity (functional antigen density) against wtCD19 coated beads (times higher than wtCD19 coated beads) (CD19.1-Fc (Human) [11])?
The fold binding capacity (functional antigen density) against wtCD19 coated beads (times higher than wtCD19 coated beads) was 3.5.

What about the % of CD19.1 molecules bound by anti-CD19-FITC (CD19.1-Fc (Human) [12]) of the same substance?
Its % of CD19.1 molecules bound by anti-CD19-FITC is 1.86%.

And the Moles of antibody per mg of beads (mol per mg of beads) (CD19.1-Fc (Human) [12])?
Its Moles of antibody per mg of beads (mol per mg of beads) is 1e-12.

And the EC50 (read off the curve) (CD19.1-Fc (Human) [13])?
The EC50 (read off the curve) was 4 ng/mL.

And the % of CD19.1 molecules bound by anti-CD19-FITC (CD19.1-Fc (Human) [14])?
Its % of CD19.1 molecules bound by anti-CD19-FITC is 0.87%.

What about the Moles of antibody per mg of beads (mol per mg of beads) (CD19.1-Fc (Human) [14]) of the same substance?
Its Moles of antibody per mg of beads (mol per mg of beads) is 4.1e-13.

What about the Moles of antibody per mg of beads (mol per mg of beads) (CD19.1-Fc (Human) [15]) of the same substance?
Its Moles of antibody per mg of beads (mol per mg of beads) is 4.6e-13.

And the Percentage of CD19.1 or wt CD19 Fc molecules bound by anti-CD19-FITC (FMC63) (CD19.1-Fc (Human) [15])?
Its Percentage of CD19.1 or wt CD19 Fc molecules bound by anti-CD19-FITC (FMC63) is 1.36%.

Which maximum stimulation against TransAct at 1:100 dilution (fold stronger than TransAct) [16] does the source give for “CD19.1 (immobilized on plates or coated on beads; tagged version not stated) (from UniProt P15391 20-291)” here?
Its maximum stimulation against TransAct at 1:100 dilution (fold stronger than TransAct) is 3.4.

For CD19.1-Fc (Fc fusion), which Kd (CD19 antibody FMC63 [17]) is on record?
Its Kd is 0.103 nM.

What about the EC50 [18] of the same substance?
Its EC50 is 1.9 nM.

How did the Kd (CD19 antibody FMC63 [17]) turn out when CD19.1-His (from UniProt P15391 20-291) was run?
Its Kd is 3.18 nM.

And the EC50 [18]?
Its EC50 is 15.8 nM.

“WT etCD19-His (Acrobiosystems) (from UniProt P15391 20-291)” was tested. Which Kd (CD19 antibody FMC63 [19]) did it give?
Its Kd is 7.18 nM.

With “purchased WT etCD19-His (from UniProt P15391 20-291)” as the substance, how does the Kd (CD19 antibody FMC63 [19]) read?
Its Kd is 3.88 nM.
